# Source: patent US20260209330A1, “S100A7 AS A DIAGNOSTIC MARKER AND THERAPEUTIC TARGET FOR DISORDERS” (Ohio State Innovation Foundation, priority 2022, published 2026)
# B1: S100A7 nAb: novel monoclonal S100A7 neutralizing antibody, hybridoma clone 28F8-2; heavy chain SEQ ID NO: 4, light chain SEQ ID NO: 8 (antibody)
# heavy: MRVLILLWLFTAFPGILSDVQLQESGPGLVKPSQSLSLTCTVTGYSITSDYAWNWIRQFPGNKLEWMGYISYSGYTSYNPSLKSRISITRDTSKNQFFLQLNSVTTEDTTTYYCTRGGKGPMDYWGQGTSVTVSSAKTTPPSVYPLAPGSAAQTNSMVTLGCLVKGYFPEPVTVTWNSGSLSSGVHTFPAVLQSDLYTLSSSVTVPSSTWPSETVTCNVAHPASSTKVDKKIVPRDCGCKPCICTVPEVSSVFIFPPKPKDVLTITLTPKVTCVVVDISKDDPEVQFSWFVDDVEVHTAQTQPREEQFNSTFRSVSELPIMHQDWLNGKEFKCRVNSAAFPAPIEKTISKTKGRPKAPQVYTIPPPKEQMAKDKVSLTCMITDFFPEDITVEWQWNGQPAENYKNTQPIMDTDGSYFVYSKLNVQKSNWEAGNTFTCSVLHEGLHNHHTEKSLSHSPGK
# light: MKSQTQVFVFLLLCVSGAHGSIVMTQTPKFLLVSAGDRVTITCKASQSVSNDVAWYHQKPGQSPKLLIYYASNRYTGVPDRFTGSGYGTDFTFTISTVQAEDLAVYFCQQDYSSPYTFGGGTKLEIKRADAAPTVSIFPPSSEQLTSGGASVVCFLNNFYPKDINVKWKIDGSERQNGVLNSWTDQDSKDSTYSMSSTLTLTKDEYERHNSYTCEATHKTSTSPIVKSFNRNEC
# modifications: Description of sequence: Heavy Chain; Description of sequence: Light Chain
# Assays:
# [1] = breast cancer patients; reported; cited from earlier work
# [2] = HFD-induced obesity in wild type female FVB mice; format: in vivo, mouse; details: FVB mice on HFD; nAb i.p. two times a week, alone or with reboxetine 20 mg/kg·bt i.p. twice a week; vs control IgG treated group
# Description: (§1) FIGS. 10C, 10D, 10E, 10F, and 10G show the analysis of body weight, vWAT mass (gm), tumor volume, tumor weight (gm), and Lung metastasis of VC, S100A7 nAb, Reb and combo-treated animals. *P<0.05, ** P<0.01. One way ANOVA was used for calculating statistical significance. Mouse models, obesity tumor growth analyses and flow cytometry. The NCG and wild-type 6 weeks old female FVB mice (6 weeks old) were obtained from the Charles River. S100A7 overexpressing MDA-MB-231 cells (1×10^6) were injected into the 4th mammary fat pad of NCG mice. While Mvt1 cells (1×10^5) were injected into the mammary fat pad of wild type FVB mice fed with HFD. […] Mvt-1 cells (1×10^5) were also injected into the mammary glands of S100A7 floxed (control) and KO mice. Body weights and tumors were measured weekly, and volume was calculated. In the endpoints, animals were sacrificed, and tumors and other organs were excised. All mice were kept in The OSU's animal facility in compliance with the guidelines and protocols approved by the OSU-IACUC. For flow cytometry, freshly prepared single-cell suspensions of spleen samples harvested from non-tumor bearing S100A7 floxed and KO mice were incubated with an Fc receptor blocker followed by staining with different fluorochrome-conjugated antibodies (Table 1). After staining, cells were evaluated by FACS Fortessa using CellQuest software (BD Biosciences)
# MDA-MB-231 cells [3] = assay: Trans-well migration assay; format: cell-based; details: nAb clone 28F8-2 300 ng/μl; recombinant human S100A7 100 ng/ml; overnight, transwell chambers
# Description: (§2) MDA-MB-231 cells were treated with hS100A7 neutralizing antibody (clone 28F8-2; 300 ng/μl) or control IgG or PBS in the presence or absence of recombinant human S100A7 (100 ng/ml) and spheroid invasion assay was performed by using 3D-Cultrex spheroid invasion kit. […] FIG. 9B show the bar diagram representing the invaded area of spheroids. The area between red and blue circles represents the invaded area. […] GAPDH was used as a loading control. S100A7 overexpressing MDA-MB-231 cells (1×10^6) were injected into the female NCG mice. After the onset of palpable tumors, mice were either treated with vehicle control (VC), S100A7 nAb ([…], i.p. route; clone 28F8-2; two times a week) alone or in combination with ASB-14780 (50 mg/kg·bt, oral route; three times a week). […] FIGS. 9F, 9G, and 9H show the analysis of tumor volume, tumor weight, and liver metastasis of control IgG, S100A7 nAb, ASB-14780, and combination-treated. *** is p<0.001; **** is p<0.0001. One way ANOVA and t test were used for calculating statistical significance.
# (§3) Trans-well migration assay and 3D-Spheroid invasion assay. MDA-MB-231 cells were treated with hS100A7 neutralizing antibody (clone 28F8-2; 300 ng/μl) or control IgG or PBS in the presence or absence of recombinant human S100A7 (100 ng/ml). […] On the 10th day, the invaded area was calculated by using the image-J plugin.
# MDA-MB-231 cells [4] = assay: 3D-Spheroid invasion assay (3D-Cultrex spheroid invasion kit); format: cell-based; details: nAb clone 28F8-2 300 ng/μl; recombinant human S100A7 100 ng/ml; vs control IgG or PBS; invaded area on 10th day
# Description: as §2, §3
# PD-L1 = assay: S100A7-induced PD-L1 expression by Western blot; format: cell-based; details: MDA-MB-231 cells; nAb clone 28F8-2 300 ng/μl; recombinant human S100A7 100 ng/ml; GAPDH loading control
# Description: as §2
# Western blotting, adipokine array and Immunohistochemistry (IHC). Cell or tissue lysates were analyzed by Western blotting. Briefly, samples were run on NuPAGE 4-12% gradient precast gels (Invitrogen) and probed with primary antibodies (Table 1), followed by secondary antibodies incubation, and were developed. […]
# Mvt1 cells = assay: Mvt1-generated syngeneic breast tumor model in HFD-induced obese mice; format: in vivo, mouse; details: HFD-induced obese FVB mice with Mvt1 tumors; nAb i.p. two times a week, alone or with reboxetine 20 mg/kg·bt i.p. twice a week
# Description: as §1
Molecule,depressive symptoms [1],tolerability [1],HFD-induced body weight gain [2],visceral fat accumulation (vWAT mass) [2],S100A7-mediated migration of TNBC cells (MDA-MB-231 cells [3]),S100A7-mediated invasiveness of spheroid cells (invaded area) (MDA-MB-231 cells [4]),S100A7-induced PD-L1 expression (PD-L1),lung metastasis (Mvt1 cells),"tumor growth (tumor volume, tumor weight) (Mvt1 cells)"
CCOc1ccccc1OC(c1ccccc1)C1CNCCO1 (stereo not drawn) [reboxetine],reduces,well tolerated,,,,,,,
B1,,,significantly inhibited,significantly inhibited,inhibits,reduced,decreases,significantly reduced,significantly reduced
